Assay results: US20240288416A1 (RIJKSUNIVERSITEIT GRONINGEN, published 2024)

Molecular target: T1, artificial PA28-nanopore
T1 construct: also called PA-nanopore; PA nanopore
Assay: single-channel electrical recording in a planar lipid bilayer, 1 M NaCl

B1: 20S proteasome from Thermoplasma acidophilum (enzyme)
chain 1: MQQGQMAYDRAITVFSPDGRLFQVEYAREAVKKGSTALGMKFANGVLLISDKKVRSRLIEQNSIEKIQLIDDYVAAVTSGLVADARVLVDFARISAQQEKVTYGSLVNIENLVKRVADQMQQYTQYGGVRPYGVSLIFAGIDQIGPRLFDCDPAGTINEYKATAIGSGKDAVVSFLEREYKENLPEKEAVTLGIKALKSSLEEGEELKAPEIASITVGNKYRIYDQEEVKKFL
chain 2: TTTVGITLKDAVIMATERRVTMENFIMHKNGKKLFQIDTYTGMTIAGLVGDAQVLVRYMKAELELYRLQRRVNMPIEAVATLLSNMLNQVKYMPYMVQLLVGGIDTAPHVFSIDAAGGSVEDIYASTGSGSPFVYGVLESQYSEKMTVDEGVDLVIRAISAAKQRDSASGGMIDVAVITRKDGYVQLPTDQIESRIRKLGLIL
notes: also called the proteasome; T. acidophilum proteasome
Question: Does B1 bind?
Answer: no binding
